Reference: patent US11155643B2, “Glucan kinases and methods for processing starch using the same” (University of Kentucky Research Foundation, priority 2017, dated 2021)
Positions count from the first letter of the chain named. Names may count otherwise. “Also recorded” adds a separate entry of the source.

Assays:
[1] = biological target: T1, Cyanidioschyzon merolae Cm-GWD DUF domain (CmGWD DUF, amino acids 345-469; full length Cm-GWD SEQ ID NO: 2) (Cyanidioschyzon merolae, UniProt M1VD00); assay: differential scanning fluorimetry (DSF)-based thermal shift assay, oligosaccharide binding
T1 construct: recombinant, purified
T1 sequence (M1VD00 345-469): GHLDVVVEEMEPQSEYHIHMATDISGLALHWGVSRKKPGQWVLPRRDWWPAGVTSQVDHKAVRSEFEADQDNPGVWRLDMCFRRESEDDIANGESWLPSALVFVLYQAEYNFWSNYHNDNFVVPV
Experimental: FIGS. 5A-C show graphs and images illustrating expression and thermal shift of various domains of the Cm-GWD. (A) is an image showing the expression of the Cm-GWD DUF domain constructs with varying N- and C-termini. (B) is an image showing the expression of individual N-terminal domains of Cm-GWD.
To characterize the enzymes' structure, the architecture of the dikinases was first analyzed. The sequences of the dikinases were analyzed using bioinformatic tools. The dikinase primary sequences from multiple species were analyzed to predict sequence conservation, secondary structure, regions of disorder, and regions of hydrophobicity in order to define the optimal constructs for recombinant protein expression of Cm-GWD. At-GWD and PWD have been reported to have cTP, one or two CBM domains, and a dikinase domain (FIG. 4). […]
The binding of purified proteins to oligosaccharides was measured using a differential scanning fluorimetry (DSF)-based thermal shift assay. […] As a proof of principle, the binding of the Cm-GWD DUF to the oligosaccharide maltohexaose and to maltose was measured, as a negative control. […] The change in Tm was monitored with increasing concentration of oligosaccharide (FIG. 5C). […]

[2] = starch-phosphorylation assay (33P-β-ATP radio-label incorporation into starch); format: biochemical, Arabidopsis; conditions: for ability to phosphorylate starch (specific activity): FIG. 2, FIG. 3
Experimental: FIG. 8 includes the framework for the C6 versus C3 assay. To label the C6-position, non-phosphorylated starch is incubated in the presence of GWD and ^33P-β-ATP, the protein and label are washed away, and the starch is incubated in the presence of ATP and PWD. The C3 position is labeled in a similar manner, except ^33P-β-ATP is used with PWD. These products are then used as substrates in dephosphorylation assays. A starch-phosphorylation assay is routinely used in the lab to measure the specific activity of protein constructs. This assay has 3 benefits: it utilizes an endogenous substrate, measures the amount of phosphate added to glucose (dikinase activity), and allows comparison of addition to the C3- and C6-positions (site-specific activity) (FIG. 8). Phosphate-free starch was isolated from plants lacking the dikinase GWD, and the sample dialyzed to remove free phosphate. To measure dikinase activity, this phosphate-free starch was used as the substrate. The starch was incubated with the dikinase in question along with ^33P-β-ATP, the ^33P-β-ATP and dikinase was washed out, and radio-label incorporation into the starch was measured.

[3] = glucose release from native starch treated with combinations of amylases, dikinase and phosphatase; format: biochemical, Arabidopsis
Experimental: FIG. 7 includes a plot showing the glucose released for native Arabidopsis starch that was incubated at 25° C. for 60 minutes with combinations of amylases (BAM+ISA), dikinase (At-GWD), or phosphatase (At-SEX4), undigested starch was pelleted with a high-speed spin, the supernatant sugars were hydrolyzed via acid hydrolysis and glucose content was measured.
To observe how GWDs can be utilized to enhance starch utilization, native Arabidopsis starch was first treated with combinations of BAM3, ISA3, St-GWD, and At-SEX4. a high-speed spin was performed to remove the undigested starch, any remaining oligo-saccharides were hydrolyzed, and glucose released into the supernatant was measured (FIG. 7). Glucose was only released upon addition of amylases.
Native Arabidopsis starch was treated with combinations of BAM3, ISA3, StGWD, and AtSEX4, performed a high-speed spin to remove the undigested starch, hydrolyzed any remaining oligo-saccharides, and measured glucose released into the supernatant (FIG. 7). Glucose was only released upon addition of amylases, as expected.

## OC[C@H]1O[C@H](O[C@H]2[C@H](O)[C@@H](O)[C@@H](O[C@H]3[C@H](O)[C@@H](O)[C@@H](O[C@H]4[C@H](O)[C@@H](O)[C@@H](O[C@H]5[C@H](O)[C@@H](O)[C@@H](O[C@H]6[C@H](O)[C@@H](O)C(O)O[C@@H]6CO)O[C@@H]5CO)O[C@@H]4CO)O[C@@H]3CO)O[C@@H]2CO)[C@H](O)[C@@H](O)[C@@H]1O (some centres unmarked) [maltohexaose]
[1]; change in Tm with increasing concentration of oligosaccharide, apparent dissociation constant
  Kd: 7 mM

## OC[C@H]1O[C@H](O[C@H]2[C@H](O)[C@@H](O)C(O)O[C@@H]2CO)[C@H](O)[C@@H](O)[C@@H]1O (some centres unmarked) [maltose]
[1]; increasing concentration of oligosaccharide, negative control
  stabilization (change in Tm): No stabilization

## NcCBM20-AtPWD: CBM20 of Neurospora crassa NCU08746 fused N-terminally to the dikinase domain of PWD
[2]; phosphate-less Arabidopsis (sex1-3) starch or potato starch, FIG. 11A
  phosphorylation of starch by chimeric CBM-dikinase: robustly phosphorylated starch
[2]; sex1-3 starch pretreated with the enzyme, FIG. 11B
  priming of starch for phosphorylation by wild-type AtPWD: served to prime wild-type AtPWD; also recorded: to a greater extent than starch pretreated with wild-type StGWD

## Cm-GWD: full length Cyanidioschyzon merolae glucan, water dikinase, amino acids 1-1572
[2]; FIG. 2
  activity compared with At-GWD and At-PWD: between that of At-GWD and At-PWD
[2]
  ability to phosphorylate starch (specific activity): robust specific activity

B1: SEX4: Arabidopsis glucan phosphatase Starch EXcess4 (protein, UniProt Q9FEB5 55-379, looked up)
Phosphoglucan phosphatase …: SESKSSSEMSGVAKDEEKSDEYSQDMTQAMGAVLTYRHELGMNYNFIRPDLIVGSCLQTPEDVDKLRKIGVKTIFCLQQDPDLEYFGVDISSIQAYAKKYSDIQHIRCEIRDFDAFDLRMRLPAVVGTLYKAVKRNGGVTYVHCTAGMGRAPAVALTYMFWVQGYKLMEAHKLLMSKRSCFPKLDAIRNATIDILTGLKRKTVTLTLKDKGFSRVEISGLDIGWGQRIPLTLDKGTGFWILKRELPEGQFEYKYIIDGEWTHNEAEPFIGPNKDGHTNNYAKVVDDPTSVDGTTRERLSSEDPELLEEERSKLIQFLETCSEAEV
[3]; BAM3, ISA3, 25° C., 60 minutes, FIG. 7
  effect on glucose release when added to amylases: did not enhance glucose release on its own
[3]; amylases plus AtGWD plus SEX4 (full starch phosphorylation cycle)
  effect on glucose release when used with AtGWD: more than doubling
[3]; amylases plus St-GWD plus SEX4 (full starch phosphorylation cycle)
  effect on glucose release when used with St-GWD: more than doubling

B2: truncated Cm-GWD construct (residues 511-1572): truncated Cm-GWD encoding the second predicted CBM and catalytic dikinase domain (protein)
chain: MTILGLERRSLDDDGETVICFSVEEDGFALRVHADLSPLVIHWGIARHRVTEFLQPDESLAVETKGRTYRFENKAMRTEFVPDEHHQGTYYAEIHLKKEHAPRAVTFVLFNPELNRWYRAEGGGNFVLRMDLESFSQLPGSVGKHEDVAQKIIEVEVEYGSWTLMHRYNLANDILRNSMSALDADLLQIVFVWLRYSFLRQLDWQRSYNTQPRLLAHAQEQLTTTLAQVFVSRPDLRLWVRLCLSMLGRGGGNGQRIRDDILRIMHKHHIPETPGHFMEQWHQKLHNNTTPDDVAICESYLAFLRSNGDKNVFYETLQKHGVTKERLASYERPIFAEVQTYPCDTNSLIHDFEEYLHVLKSVHSGTDLAVVLDYARWTLDQELISKVEHIQSVRAELMASPQGALEFSFLIAEARKMLQSTLEHVEDPTRVRDMLFLDLALDELARLAVESQGLADYVAETDVQKACNLLVVLAQHVGWSMLSSAFLETSYDLAALVYGIQSDVQLQEPDFGLRLYATMERLMDCVGHDVVERLHHDVQPKAVYIGVGCNIDQKVVTLFSEELIRGQAAFALAQVLRPLMRNIRKQANLGNWQVISPGSCTGQGAVFDELLSIQYKTFAEPTVAFVRRISGEEEIPTGMVGLITTDTLDILSHCAVRARNEHVVLACCFSEELFDQLTERFRGAWVAVRSLTDGSLDFQPIQEGAGRTTAADTTDGASEHAQRRAVSMRSDIEKKPVKSVLGIAQFNTQRGGSKSNSLAKLIRVIPDWIHIPPCALLPFGVCEQVLAEAQNSDVGERFQQLMAELDGKGPTDDCSALLARLRHCVRQLAPSDTFMKELQQVLQHEGFHSIDNLDMRRAWECILDVWASKFNDRAFLALRKAGAVGKTSLSSLYMAVLVQEVVPADYAFVLHTKNPFTGEPSEIYGELVHGLGEVLVGNYPGRALGFTYSKSTGQVRVCNYPSKTKALIPRGGLIFRSDSNGEDLEDFAGAGLFDSILMQPAEEVVVRYRELKILQDKAYLERILSKIGKCGIEIESNCGNKPQDIEGCICGEDVYVVQSRDQV
modifications: Fragment of Cyanidioschyzon merolae GWD polypeptide
notes: truncated Cm-GWD encoding the second predicted CBM and catalytic dikinase domain
[2]
  ability to phosphorylate starch (specific activity): active glucan dikinase

B3: Cm-GWD H1162A: active site mutant (H1162A) of Cm-GWD 511C fragment (protein)
chain: B2 chain with H653A
modifications: Fragment of Cyanidioschyzon merolae GWD polypeptide
[2]
  ability to phosphorylate starch (specific activity): lacked activity
